# From the Human Domainome abundance scans (Beltran et al. 2025)
# ± gives the uncertainty stated by the source.
# B1: POU domain, class 5, transcription factor 1, residues 134 to 212; numbered along this chain, Q01860 (parent)
# chain: EESQDIKALQKELEQFAKLLKQKRITLGYTQADVGLTLGVLFGKVFSQTTICRFEALQLSFKNMCKLRPLLQKWVEEAD
# Variants of: B1
# Experiment: abundance fitness (aPCA) (normalised: wild type 0, dead -1); higher = more abundant; growth selection in yeast, the domain comes from the species named
# Conditions: Homo sapiens
row,Variant,abundance fitness
1,EESQDIKALQKELEQFAKLLKQKRITLGYTQADVGLELGVLFGKVFSQTTICRFEALQLSFKNMCKLRPLLQKWVEEAD [T37E],0.681 ± 0.076
2,EESQDIKALQKELEQFAKLLKQKRITLGYTQADVGLDLGVLFGKVFSQTTICRFEALQLSFKNMCKLRPLLQKWVEEAD [T37D],0.412 ± 0.14
3,EESQDIKALQKELEQFAKLLKQKRITLGYTQADVGLALGVLFGKVFSQTTICRFEALQLSFKNMCKLRPLLQKWVEEAD [T37A],0.345 ± 0.074
4,EESQDIKALQKELEQFAKLLKQKRITLGYTQADVGLCLGVLFGKVFSQTTICRFEALQLSFKNMCKLRPLLQKWVEEAD [T37C],-0.733 ± 0.34
5,EESQDIKALQKELEQFAKLLKQKRITLGYTQKDVGLTLGVLFGKVFSQTTICRFEALQLSFKNMCKLRPLLQKWVEEAD [A32K],0.232 ± 0.2
6,EESQDIKALQKELEQFAKLLKQKRITLGYTQTDVGLTLGVLFGKVFSQTTICRFEALQLSFKNMCKLRPLLQKWVEEAD [A32T],-0.06 ± 0.21
7,EESQDIKALQKELEQFAKLLKQKRITLGYTQNDVGLTLGVLFGKVFSQTTICRFEALQLSFKNMCKLRPLLQKWVEEAD [A32N],-0.193 ± 0.33
8,EESQDIKALQKELEQFAKLLKQKRITLGYTQRDVGLTLGVLFGKVFSQTTICRFEALQLSFKNMCKLRPLLQKWVEEAD [A32R],0.066 ± 0.1
9,EESQDIKALQKELEQFAKLLKQKRITLGYTQVDVGLTLGVLFGKVFSQTTICRFEALQLSFKNMCKLRPLLQKWVEEAD [A32V],-0.785 ± 0.31
10,EESQDIKALQKELEQFAKLLKQKRITLGYTQWDVGLTLGVLFGKVFSQTTICRFEALQLSFKNMCKLRPLLQKWVEEAD [A32W],-0.682 ± 0.29
11,EESQDIKALQKELEQFAKLLKQKRITLGYTQEDVGLTLGVLFGKVFSQTTICRFEALQLSFKNMCKLRPLLQKWVEEAD [A32E],-0.024 ± 0.15
12,EESQDIKALQKELEQFAKLLKQKRITLGYTQHDVGLTLGVLFGKVFSQTTICRFEALQLSFKNMCKLRPLLQKWVEEAD [A32H],-0.487 ± 0.41
13,EESQDIKALQKELEQFAKLLKQKRITLGYTQLDVGLTLGVLFGKVFSQTTICRFEALQLSFKNMCKLRPLLQKWVEEAD [A32L],-0.749 ± 0.27
14,EESQDIKALQKELEQFAKLLKQKRITLGYTQCDVGLTLGVLFGKVFSQTTICRFEALQLSFKNMCKLRPLLQKWVEEAD [A32C],-0.229 ± 0.32
15,EESQDIKALQKELEQFAKLLKQKRITLGYTQGDVGLTLGVLFGKVFSQTTICRFEALQLSFKNMCKLRPLLQKWVEEAD [A32G],-0.235 ± 0.1
16,EESQDIKALQKELEQFAKLLKQKRITLGYTQADVGNTLGVLFGKVFSQTTICRFEALQLSFKNMCKLRPLLQKWVEEAD [L36N],0.144 ± 0.21
17,EESQDIKALQKELEQFAKLLKQKRITLGYTQADVGRTLGVLFGKVFSQTTICRFEALQLSFKNMCKLRPLLQKWVEEAD [L36R],0.235 ± 0.059
18,EESQDIKALQKELEQFAKLLKQKRITLGYTQADVGHTLGVLFGKVFSQTTICRFEALQLSFKNMCKLRPLLQKWVEEAD [L36H],0.362 ± 0.15
19,EESQDIKALQKELEQFAKLLKQKRITLGYTQADVGVTLGVLFGKVFSQTTICRFEALQLSFKNMCKLRPLLQKWVEEAD [L36V],0.002 ± 0.065
20,EESQDIKALQKELEQFAKLLKQKRITLGYTQADVGDTLGVLFGKVFSQTTICRFEALQLSFKNMCKLRPLLQKWVEEAD [L36D],0.112 ± 0.1
21,EESQDIKALQKELEQFAKLLKQKRITLGYTQADVGCTLGVLFGKVFSQTTICRFEALQLSFKNMCKLRPLLQKWVEEAD [L36C],0.111 ± 0.16
22,EESQDIKALQKELEQFAKLLKQKRITLGYTQADVGATLGVLFGKVFSQTTICRFEALQLSFKNMCKLRPLLQKWVEEAD [L36A],0.273 ± 0.065
23,EESQDIKALQKELEQFAKLLKQKRITLGYTQADVGTTLGVLFGKVFSQTTICRFEALQLSFKNMCKLRPLLQKWVEEAD [L36T],0.293 ± 0.096

row,Variant,abundance fitness
1,EESQDIKALQKELEQFAKLLKQKRITLGYTQADVGFTLGVLFGKVFSQTTICRFEALQLSFKNMCKLRPLLQKWVEEAD [L36F],0.013 ± 0.26
2,EESQDIKALQKELEQFAKLLKQKRITLGYTQADVGQTLGVLFGKVFSQTTICRFEALQLSFKNMCKLRPLLQKWVEEAD [L36Q],0.283 ± 0.14
3,EESQDIKALQKELEQFAKLLKQKRITLGYTQADVGSTLGVLFGKVFSQTTICRFEALQLSFKNMCKLRPLLQKWVEEAD [L36S],0.105 ± 0.088
4,EESQDIKALQKELEQFAKLLKQKRITLGYTQADVGKTLGVLFGKVFSQTTICRFEALQLSFKNMCKLRPLLQKWVEEAD [L36K],0.087 ± 0.15
5,EESQDIKALQKELEQFAKLLKQKRITLGYTQADVGPTLGVLFGKVFSQTTICRFEALQLSFKNMCKLRPLLQKWVEEAD [L36P],-0.6 ± 0.26
6,EESQDIKALQKELEQFAKLLKQKRITLGYTQADVGYTLGVLFGKVFSQTTICRFEALQLSFKNMCKLRPLLQKWVEEAD [L36Y],-0.037 ± 0.32
7,EESQDIKALQKELEQFAKLLKQKRITLGYTQADVGITLGVLFGKVFSQTTICRFEALQLSFKNMCKLRPLLQKWVEEAD [L36I],0.311 ± 0.2
8,EESQDIKALQKELEQFAKLLKQKRITLGYTQADVGMTLGVLFGKVFSQTTICRFEALQLSFKNMCKLRPLLQKWVEEAD [L36M],0.168 ± 0.15
9,EESQDIKALQKELEQFAKLLKQKRITLGYTQADVGWTLGVLFGKVFSQTTICRFEALQLSFKNMCKLRPLLQKWVEEAD [L36W],0.249 ± 0.077
10,EESQDIKALQKELEQFAKLLKQKRITLGYTQADVGETLGVLFGKVFSQTTICRFEALQLSFKNMCKLRPLLQKWVEEAD [L36E],0.155 ± 0.094
11,EESQDIKALQKELEQFAKLLKQKRITLGYTQADVGGTLGVLFGKVFSQTTICRFEALQLSFKNMCKLRPLLQKWVEEAD [L36G],-0.306 ± 0.085
12,EESQDIKALQKELEQFAKLLKQKRITLGYTQAMVGLTLGVLFGKVFSQTTICRFEALQLSFKNMCKLRPLLQKWVEEAD [D33M],-0.497 ± 0.34
13,EESQDIKALQKELEQFAKLLKQKRITLGYTQAPVGLTLGVLFGKVFSQTTICRFEALQLSFKNMCKLRPLLQKWVEEAD [D33P],-0.227 ± 0.2
14,EESQDIKALQKELEQFAKLLKQKRITLGYTQAVVGLTLGVLFGKVFSQTTICRFEALQLSFKNMCKLRPLLQKWVEEAD [D33V],-1.19 ± 0.42
15,EESQDIKALQKELEQFAKLLKQKRITLGYTQAKVGLTLGVLFGKVFSQTTICRFEALQLSFKNMCKLRPLLQKWVEEAD [D33K],0.128 ± 0.2
16,EESQDIKALQKELEQFAKLLKQKRITLGYTQAQVGLTLGVLFGKVFSQTTICRFEALQLSFKNMCKLRPLLQKWVEEAD [D33Q],0.236 ± 0.13
17,EESQDIKALQKELEQFAKLLKQKRITLGYTQALVGLTLGVLFGKVFSQTTICRFEALQLSFKNMCKLRPLLQKWVEEAD [D33L],-0.563 ± 0.23
18,EESQDIKALQKELEQFAKLLKQKRITLGYTQAWVGLTLGVLFGKVFSQTTICRFEALQLSFKNMCKLRPLLQKWVEEAD [D33W],-0.563 ± 0.23
19,EESQDIKALQKELEQFAKLLKQKRITLGYTQAEVGLTLGVLFGKVFSQTTICRFEALQLSFKNMCKLRPLLQKWVEEAD [D33E],-0.081 ± 0.13
20,EESQDIKALQKELEQFAKLLKQKRITLGYTQAGVGLTLGVLFGKVFSQTTICRFEALQLSFKNMCKLRPLLQKWVEEAD [D33G],-0.283 ± 0.12
21,EESQDIKALQKELEQFAKLLKQKRITLGYTQAFVGLTLGVLFGKVFSQTTICRFEALQLSFKNMCKLRPLLQKWVEEAD [D33F],-0.407 ± 0.31
22,EESQDIKALQKELEQFAKLLKQKRITLGYTQASVGLTLGVLFGKVFSQTTICRFEALQLSFKNMCKLRPLLQKWVEEAD [D33S],-0.572 ± 0.19
23,EESQDIKALQKELEQFAKLLKQKRITLGYTQAAVGLTLGVLFGKVFSQTTICRFEALQLSFKNMCKLRPLLQKWVEEAD [D33A],-0.594 ± 0.19

row,Variant,abundance fitness
1,EESQDIKALQKELEQFAKLLKQKRITLGYTQATVGLTLGVLFGKVFSQTTICRFEALQLSFKNMCKLRPLLQKWVEEAD [D33T],-1.08 ± 0.5
2,EESQDIKALQKELEQFAKLLKQKRITLGYTQADGGLTLGVLFGKVFSQTTICRFEALQLSFKNMCKLRPLLQKWVEEAD [V34G],-0.518 ± 0.17
3,EESQDIKALQKELEQFAKLLKQKRITLGYTQADIGLTLGVLFGKVFSQTTICRFEALQLSFKNMCKLRPLLQKWVEEAD [V34I],-0.031 ± 0.35
4,EESQDIKALQKELEQFAKLLKQKRITLGYTQADPGLTLGVLFGKVFSQTTICRFEALQLSFKNMCKLRPLLQKWVEEAD [V34P],0.101 ± 0.2
5,EESQDIKALQKELEQFAKLLKQKRITLGYTQADTGLTLGVLFGKVFSQTTICRFEALQLSFKNMCKLRPLLQKWVEEAD [V34T],-0.797 ± 0.47
6,EESQDIKALQKELEQFAKLLKQKRITLGYTQADAGLTLGVLFGKVFSQTTICRFEALQLSFKNMCKLRPLLQKWVEEAD [V34A],-0.742 ± 0.29
7,EESQDIKALQKELEQFAKLLKQKRITLGYTQADRGLTLGVLFGKVFSQTTICRFEALQLSFKNMCKLRPLLQKWVEEAD [V34R],-0.637 ± 0.2
8,EESQDIKALQKELEQFAKLLKQKRITLGYTQADLGLTLGVLFGKVFSQTTICRFEALQLSFKNMCKLRPLLQKWVEEAD [V34L],-0.258 ± 0.21
9,EESQDIKALQKELEQFAKLLKQKRITLGYTQADQGLTLGVLFGKVFSQTTICRFEALQLSFKNMCKLRPLLQKWVEEAD [V34Q],-0.231 ± 0.32
10,EESQDIKALQKELEQFAKLLKQKRITLGYTRADVGLTLGVLFGKVFSQTTICRFEALQLSFKNMCKLRPLLQKWVEEAD [Q31R],-0.469 ± 0.14
11,EESQDIKALQKELEQFAKLLKQKRITLGYTYADVGLTLGVLFGKVFSQTTICRFEALQLSFKNMCKLRPLLQKWVEEAD [Q31Y],0.323 ± 0.27
12,EESQDIKALQKELEQFAKLLKQKRITLGYTPADVGLTLGVLFGKVFSQTTICRFEALQLSFKNMCKLRPLLQKWVEEAD [Q31P],0.133 ± 0.14
13,EESQDIKALQKELEQFAKLLKQKRITLGYTVADVGLTLGVLFGKVFSQTTICRFEALQLSFKNMCKLRPLLQKWVEEAD [Q31V],-0.679 ± 0.21
14,EESQDIKALQKELEQFAKLLKQKRITLGYTWADVGLTLGVLFGKVFSQTTICRFEALQLSFKNMCKLRPLLQKWVEEAD [Q31W],0.078 ± 0.12
15,EESQDIKALQKELEQFAKLLKQKRITLGYTQADVCLTLGVLFGKVFSQTTICRFEALQLSFKNMCKLRPLLQKWVEEAD [G35C],-0.64 ± 0.32
16,EESQDIKALQKELEQFAKLLKQKRITLGYTQADVPLTLGVLFGKVFSQTTICRFEALQLSFKNMCKLRPLLQKWVEEAD [G35P],-0.452 ± 0.29
17,EESQDIKALQKELEQFAKLLKQKRITLGYTQADVSLTLGVLFGKVFSQTTICRFEALQLSFKNMCKLRPLLQKWVEEAD [G35S],0.134 ± 0.14
18,EESQDIKALQKELEQFAKLLKQKRITLGYTQADVTLTLGVLFGKVFSQTTICRFEALQLSFKNMCKLRPLLQKWVEEAD [G35T],-0.697 ± 0.42
19,EESQDIKALQKELEQFAKLLKQKRITLGYTQADVRLTLGVLFGKVFSQTTICRFEALQLSFKNMCKLRPLLQKWVEEAD [G35R],-0.32 ± 0.17
20,EESQDIKALQKELEQFAKLLKQKRITLGYTQADVLLTLGVLFGKVFSQTTICRFEALQLSFKNMCKLRPLLQKWVEEAD [G35L],-0.769 ± 0.46
21,EESQDIKALQKELEQFAKLLKQKRITLGYTQADVQLTLGVLFGKVFSQTTICRFEALQLSFKNMCKLRPLLQKWVEEAD [G35Q],-0.039 ± 0.25
22,EESQDIKALQKELEQFAKLLKQKRITLGYTQADVALTLGVLFGKVFSQTTICRFEALQLSFKNMCKLRPLLQKWVEEAD [G35A],0.266 ± 0.092
23,EESQDIKALQKELEQFAKLLKQKRITLGYTQADVVLTLGVLFGKVFSQTTICRFEALQLSFKNMCKLRPLLQKWVEEAD [G35V],-0.743 ± 0.3
